Reference: the Human Domainome abundance scans (Beltran et al. 2025)
± gives the uncertainty stated by the source.

B1: POU domain, class 3, transcription factor 2, residues 262 to 338; numbered along this chain, P20265 (parent)
chain: EDTPTSDDLEQFAKQFKQRRIKLGFTQADVGLALGTLYGNVFSQTTICRFEALQLSFKNMCKLKPLLNKWLEEADSS
B2: Lysine-specific demethylase 2B, residues 656 to 722; numbered along this chain, Q8NHM5 (parent)
chain: LPHTAVCLVCGEAGKEDTVEEEEGKFNLMLMECSICNEIIHPGCLKIKESEGVVNDELPNCWECPKC

Variants of: B1
Assay: abundance fitness (aPCA) (normalised: wild type 0, dead -1); higher = more abundant; growth selection in yeast, the domain comes from the species named
Conditions: Homo sapiens

| Variant | abundance fitness |
| --- | --- |
| R19I | -0.196 ± 0.073 |
| F12I | -0.66 ± 0.3 |
| L67S | -0.619 ± 0.13 |
| C61M | -0.088 ± 0.037 |
| C61A | -0.101 ± 0.031 |
| L67G | -1.05 ± 0.21 |
| T46Q | -0.058 ± 0.045 |
| I21M | 0.01 ± 0.039 |
| E1W | -0.191 ± 0.084 |
| F16G | -0.818 ± 0.044 |
| I47E | -0.772 ± 0.074 |
| G35H | -0.06 ± 0.065 |
| R19H | -0.047 ± 0.067 |
| E51S | -0.88 ± 0.096 |
| P65R | -0.182 ± 0.051 |
| A74C | 0.034 ± 0.046 |
| K69R | 0.019 ± 0.056 |
| M60Y | -0.624 ± 0.15 |
| A52K | -0.07 ± 0.04 |
| L55K | -0.409 ± 0.066 |
| K62N | -0.151 ± 0.068 |
| G24D | -0.572 ± 0.067 |
| A33Y | -0.314 ± 0.087 |
| S43Y | -0.486 ± 0.12 |
| S6W | 0.098 ± 0.03 |

| Variant | abundance fitness |
| --- | --- |
| I47G | -1 ± 0.06 |
| Q11G | -0.103 ± 0.027 |
| G35M | -0.174 ± 0.042 |
| D7A | -0.154 ± 0.1 |
| F42N | -0.582 ± 0.15 |
| M60E | -0.848 ± 0.079 |
| Y38E | -0.199 ± 0.038 |
| S43Q | -0.166 ± 0.045 |
| T3F | -0.142 ± 0.1 |
| Q11S | -0.046 ± 0.035 |
| A33K | -0.264 ± 0.061 |
| N68L | 0.004 ± 0.07 |
| T5H | -0.079 ± 0.064 |
| K62L | -0.007 ± 0.036 |
| K64Y | -0.019 ± 0.068 |
| P4K | 0.063 ± 0.052 |
| K69E | -0.231 ± 0.1 |
| Q15I | -0.068 ± 0.15 |
| C61D | -0.291 ± 0.075 |
| K22T | -0.143 ± 0.05 |
| Y38H | -0.029 ± 0.077 |
| L55S | -0.504 ± 0.045 |
| T26M | -0.705 ± 0.1 |
| I21R | -0.195 ± 0.029 |
| L37T | 0.048 ± 0.044 |

| Variant | abundance fitness |
| --- | --- |
| L71R | -0.427 ± 0.077 |
| G31A | 0.047 ± 0.033 |
| F57Q | -0.022 ± 0.042 |
| E72M | -0.117 ± 0.054 |
| V41C | 0.036 ± 0.065 |
| K62P | -0.99 ± 0.15 |
| M60A | -0.168 ± 0.035 |
| F57T | 0.01 ± 0.036 |
| C61T | -0.182 ± 0.045 |
| A74W | -0.172 ± 0.036 |
| N59Q | -0.001 ± 0.044 |
| N40H | 0.06 ± 0.085 |
| Y38N | -0.043 ± 0.051 |
| S77N | -0.169 ± 0.11 |
| R19C | -0.162 ± 0.054 |
| P4M | 0.068 ± 0.053 |
| A28M | -0.208 ± 0.048 |
| C48P | -0.115 ± 0.044 |
| D8I | -0.423 ± 0.12 |
| Q44L | -0.248 ± 0.039 |
| Q15G | -0.141 ± 0.027 |
| R49G | -0.242 ± 0.027 |
| A28K | 0.067 ± 0.056 |
| S76V | 0.01 ± 0.032 |
| N40Y | -0.007 ± 0.084 |

| Variant | abundance fitness |
| --- | --- |
| K62Y | -0.263 ± 0.07 |
| T5C | 0.038 ± 0.046 |
| W70C | -0.698 ± 0.11 |
| M60L | -0.282 ± 0.039 |
| A52G | -0.078 ± 0.024 |
| D75M | -0.022 ± 0.037 |
| L63F | -0.347 ± 0.082 |
| S6Q | 0.124 ± 0.035 |
| F16W | -0.595 ± 0.047 |
| G24H | -0.466 ± 0.1 |
| K62G | -0.189 ± 0.027 |
| E10L | 0.128 ± 0.03 |
| A52I | -0.632 ± 0.13 |
| T26D | -0.601 ± 0.11 |
| W70Q | -0.728 ± 0.088 |
| F16Y | -0.767 ± 0.15 |
| V30R | -0.979 ± 0.11 |
| K14F | -0.337 ± 0.21 |
| Y38G | -0.074 ± 0.028 |
| N59W | -0.074 ± 0.04 |
| M60T | -0.337 ± 0.054 |
| V41E | 0.034 ± 0.038 |
| Y38A | -0.069 ± 0.04 |
| I47H | -0.65 ± 0.16 |
| F25Y | 0.041 ± 0.057 |

| Variant | abundance fitness |
| --- | --- |
| S6M | 0.148 ± 0.04 |
| G24S | -0.646 ± 0.049 |
| L9V | -0.107 ± 0.03 |
| Q54K | 0.045 ± 0.055 |
| E72L | 0.004 ± 0.035 |
| N40G | 0.035 ± 0.032 |
| T36R | 0.012 ± 0.027 |
| S6H | 0.265 ± 0.068 |
| T46K | -0.416 ± 0.059 |
| E10H | 0.093 ± 0.047 |
| R20I | -0.794 ± 0.31 |
| T36A | -0.021 ± 0.033 |
| E51P | -0.795 ± 0.11 |
| A74G | -0.331 ± 0.03 |
| Q54H | -0.2 ± 0.063 |
| K22P | -0.958 ± 0.18 |
| L67T | -0.407 ± 0.32 |
| V30M | -0.655 ± 0.12 |
| N40K | -0.016 ± 0.044 |
| L34K | -0.441 ± 0.076 |
| K14G | -0.251 ± 0.057 |
| N68W | 0.004 ± 0.1 |
| L32K | 0.493 ± 0.48 |
| K58H | -0.486 ± 0.26 |
| A13K | -0.606 ± 0.11 |

Variants of: B2
Assay: as above
Conditions: Homo sapiens

| Variant | abundance fitness |
| --- | --- |
| L1A | -0.175 ± 0.22 |
| L1C | 0.414 ± 0.19 |
| L1E | -0.245 ± 0.33 |
| L1F | 0.761 ± 0.073 |
| L1G | -0.129 ± 0.13 |
| L1H | -0.174 ± 0.48 |
| L1I | 0.781 ± 0.11 |
| L1K | -0.363 ± 0.14 |
| L1M | 0.071 ± 0.082 |
| L1N | 1.01 ± 0.2 |
| L1Q | -0.468 ± 0.24 |
| L1R | -0.185 ± 0.14 |
| L1S | -0.069 ± 0.089 |
| L1T | 0.035 ± 0.1 |
| L1W | -0.426 ± 0.12 |
| P2A | 0.708 ± 0.14 |
| P2C | 0.396 ± 0.13 |
| P2D | 0.787 ± 0.15 |
| P2E | 0.854 ± 0.14 |
| P2F | 0.359 ± 0.31 |
| P2G | 0.588 ± 0.14 |

| Variant | abundance fitness |
| --- | --- |
| P2I | 0.783 ± 0.15 |
| P2K | 0.78 ± 0.15 |
| P2L | 0.807 ± 0.12 |
| P2N | 0.758 ± 0.17 |
| P2Q | 0.184 ± 0.15 |
| P2R | 0.664 ± 0.11 |
| P2S | 0.729 ± 0.13 |
| P2T | 0.844 ± 0.1 |
| P2W | 0.667 ± 0.14 |
| P2Y | 0.713 ± 0.097 |
| H3A | -0.013 ± 0.12 |
| H3C | -0.642 ± 0.17 |
| H3E | 0.34 ± 0.13 |
| H3F | -0.359 ± 0.17 |
| H3G | 0.42 ± 0.067 |
| H3K | 0.506 ± 0.1 |
| H3L | 0.048 ± 0.074 |
| H3M | 0.478 ± 0.15 |
| H3N | 0.177 ± 0.16 |
| H3P | -0.14 ± 0.14 |
| H3Q | -0.015 ± 0.12 |
